The supplement of paper PMC9112550, “Optimization of the antimicrobial peptide Bac7 by deep mutational scanning” (BMC Biology, 2022)

What follows are sequences tested on Escherichia coli TOP10 (assay: shrunken log2 fold change of peptide-encoding DNA abundance (4.5 h post-induction vs induction); higher = less antimicrobial activity (less host growth inhibition)). Conditions: time post-induction: 4.5 h; library: site-saturation at positions 5, 18, 19, 20.
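Further: peptides expressed intracellularly from a pBAD plasmid library in pooled LB shake-flask culture, induced with 0.3% L-arabinose, DNA abundance read by NGS, three biological replicates, DESeq2 with apeglm shrinkage.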

Sequence | shrunken log2 fold change
RRIRFRPPRLPRPRPRPKMRPRP | 0.223
RRIRFRPPRLPRPRPRPKNGPRP | -0.0366
RRIRFRPPRLPRPRPRPKNNPRP | -0.504
RRIRFRPPRLPRPRPRPKNRPRP | -0.284
RRIRFRPPRLPRPRPRPKQPPRP | 0.137
RRIRFRPPRLPRPRPRPKRWPRP | 0.0556
RRIRFRPPRLPRPRPRPKTSPRP | -0.0999
RRIRFRPPRLPRPRPRPKTWPRP | 0.157
RRIRFRPPRLPRPRPRPKWYPRP | -0.388
RRIRFRPPRLPRPRPRPKYCPRP | 0.124
RRIRFRPPRLPRPRPRPKYVPRP | -0.594
RRIRFRPPRLPRPRPRPLAYPRP | -0.534
RRIRFRPPRLPRPRPRPLCCPRP | -0.205
RRIRFRPPRLPRPRPRPLDAPRP | 0.0999
RRIRFRPPRLPRPRPRPLFVPRP | -0.424
RRIRFRPPRLPRPRPRPLIGPRP | -0.106
RRIRFRPPRLPRPRPRPLIIPRP | -0.575
RRIRFRPPRLPRPRPRPLLCPRP | -0.105
RRIRFRPPRLPRPRPRPLPMPRP | 0.142
RRIRFRPPRLPRPRPRPLRWPRP | 0.59
RRIRFRPPRLPRPRPRPLSHPRP | -0.512
RRIRFRPPRLPRPRPRPLSLPRP | -0.0575
RRIRFRPPRLPRPRPRPLSRPRP | -0.102
RRIRFRPPRLPRPRPRPLTDPRP | -0.143
RRIRFRPPRLPRPRPRPLTHPRP | -0.0881

Sequence | shrunken log2 fold change
RRIRFRPPRLPRPRPRPLTMPRP | -0.396
RRIRFRPPRLPRPRPRPLTSPRP | -0.0399
RRIRFRPPRLPRPRPRPLVKPRP | -0.143
RRIRFRPPRLPRPRPRPLWCPRP | -0.0894
RRIRFRPPRLPRPRPRPLWWPRP | 0.172
RRIRFRPPRLPRPRPRPLYAPRP | -0.119
RRIRFRPPRLPRPRPRPLYFPRP | -0.72
RRIRFRPPRLPRPRPRPMAGPRP | -0.111
RRIRFRPPRLPRPRPRPMAWPRP | -0.0344
RRIRFRPPRLPRPRPRPMCIPRP | -0.075
RRIRFRPPRLPRPRPRPMDTPRP | -0.165
RRIRFRPPRLPRPRPRPMEEPRP | 0.279
RRIRFRPPRLPRPRPRPMEKPRP | 0.273
RRIRFRPPRLPRPRPRPMKTPRP | -0.0807
RRIRFRPPRLPRPRPRPMLLPRP | -0.128
RRIRFRPPRLPRPRPRPMMHPRP | -0.181
RRIRFRPPRLPRPRPRPMMIPRP | -0.018
RRIRFRPPRLPRPRPRPMNGPRP | -0.0885
RRIRFRPPRLPRPRPRPMQHPRP | 0.0148
RRIRFRPPRLPRPRPRPMQVPRP | -0.228
RRIRFRPPRLPRPRPRPMRCPRP | 0.0196
RRIRFRPPRLPRPRPRPMRKPRP | 0.222
RRIRFRPPRLPRPRPRPMWSPRP | -0.227
RRIRFRPPRLPRPRPRPMYCPRP | -0.541
RRIRFRPPRLPRPRPRPMYDPRP | -0.244

Sequence | shrunken log2 fold change
RRIRFRPPRLPRPRPRPMYYPRP | -0.123
RRIRFRPPRLPRPRPRPNADPRP | -0.055
RRIRFRPPRLPRPRPRPNCGPRP | -0.0249
RRIRFRPPRLPRPRPRPNDCPRP | -0.415
RRIRFRPPRLPRPRPRPNDEPRP | -0.648
RRIRFRPPRLPRPRPRPNDKPRP | -0.32
RRIRFRPPRLPRPRPRPNENPRP | 0.00257
RRIRFRPPRLPRPRPRPNEVPRP | -0.0205
RRIRFRPPRLPRPRPRPNFYPRP | -0.212
RRIRFRPPRLPRPRPRPNGCPRP | -0.0256
RRIRFRPPRLPRPRPRPNHYPRP | -0.62
RRIRFRPPRLPRPRPRPNKKPRP | -0.212
RRIRFRPPRLPRPRPRPNKLPRP | -0.615
RRIRFRPPRLPRPRPRPNLDPRP | -0.18
RRIRFRPPRLPRPRPRPNLFPRP | -0.0917
RRIRFRPPRLPRPRPRPNMSPRP | -0.54
RRIRFRPPRLPRPRPRPNPHPRP | -0.428
RRIRFRPPRLPRPRPRPNPLPRP | 0.0861
RRIRFRPPRLPRPRPRPNRCPRP | -0.717
RRIRFRPPRLPRPRPRPNTEPRP | -0.479
RRIRFRPPRLPRPRPRPNTHPRP | -0.579
RRIRFRPPRLPRPRPRPNTIPRP | -0.409
RRIRFRPPRLPRPRPRPNWGPRP | 0.0529
RRIRFRPPRLPRPRPRPNYEPRP | -0.774
RRIRFRPPRLPRPRPRPNYFPRP | -0.383

Sequence | shrunken log2 fold change
RRIRFRPPRLPRPRPRPNYLPRP | -0.381
RRIRFRPPRLPRPRPRPNYQPRP | -0.467
RRIRFRPPRLPRPRPRPPAFPRP | 0.112
RRIRFRPPRLPRPRPRPPAHPRP | 0.613
RRIRFRPPRLPRPRPRPPDLPRP | -0.329
RRIRFRPPRLPRPRPRPPGEPRP | 0.421
RRIRFRPPRLPRPRPRPPGMPRP | 0.461
RRIRFRPPRLPRPRPRPPKCPRP | 0.0793
RRIRFRPPRLPRPRPRPPKQPRP | 0.226
RRIRFRPPRLPRPRPRPPKSPRP | 0.234
RRIRFRPPRLPRPRPRPPKVPRP | 0.0991
RRIRFRPPRLPRPRPRPPLCPRP | 0.282
RRIRFRPPRLPRPRPRPPLKPRP | 0.266
RRIRFRPPRLPRPRPRPPLVPRP | 0.23
RRIRFRPPRLPRPRPRPPNTPRP | -0.0857
RRIRFRPPRLPRPRPRPPQNPRP | 0.536
RRIRFRPPRLPRPRPRPPTSPRP | 0.403
RRIRFRPPRLPRPRPRPPTTPRP | 0.276
RRIRFRPPRLPRPRPRPPVNPRP | 0.147
RRIRFRPPRLPRPRPRPPVRPRP | 0.443
RRIRFRPPRLPRPRPRPPWWPRP | 0.651
RRIRFRPPRLPRPRPRPPWYPRP | -0.3
RRIRFRPPRLPRPRPRPPYLPRP | -0.465
RRIRFRPPRLPRPRPRPQAPPRP | 0.0778
RRIRFRPPRLPRPRPRPQCFPRP | -0.0591

Sequence | shrunken log2 fold change
RRIRFRPPRLPRPRPRPQCQPRP | -0.0517
RRIRFRPPRLPRPRPRPQCWPRP | 0.0388
RRIRFRPPRLPRPRPRPQDTPRP | -0.46
RRIRFRPPRLPRPRPRPQFCPRP | -0.0625
RRIRFRPPRLPRPRPRPQFHPRP | -0.839
RRIRFRPPRLPRPRPRPQFSPRP | -0.401
RRIRFRPPRLPRPRPRPQGAPRP | -0.0798
RRIRFRPPRLPRPRPRPQGLPRP | -0.462
RRIRFRPPRLPRPRPRPQIHPRP | -0.995
RRIRFRPPRLPRPRPRPQIQPRP | -0.42
RRIRFRPPRLPRPRPRPQKLPRP | -0.211
RRIRFRPPRLPRPRPRPQLAPRP | 0.0569
RRIRFRPPRLPRPRPRPQMLPRP | -0.179
RRIRFRPPRLPRPRPRPQQFPRP | 0.0682
RRIRFRPPRLPRPRPRPQRCPRP | 0.08
RRIRFRPPRLPRPRPRPQSTPRP | -0.249
RRIRFRPPRLPRPRPRPQSVPRP | -0.0251
RRIRFRPPRLPRPRPRPQTEPRP | -0.00927
RRIRFRPPRLPRPRPRPQTQPRP | 0.0508
RRIRFRPPRLPRPRPRPQVFPRP | -0.139
RRIRFRPPRLPRPRPRPQVLPRP | -0.00198
RRIRFRPPRLPRPRPRPQYCPRP | -0.943
RRIRFRPPRLPRPRPRPRAPPRP | 0.821
RRIRFRPPRLPRPRPRPRCNPRP | -0.0427
RRIRFRPPRLPRPRPRPRDIPRP | -0.11

Sequence | shrunken log2 fold change
RRIRFRPPRLPRPRPRPRERPRP | 1.02
RRIRFRPPRLPRPRPRPRFRPRP | -0.0973
RRIRFRPPRLPRPRPRPRHDPRP | 0.0736
RRIRFRPPRLPRPRPRPRIDPRP | -0.0186
RRIRFRPPRLPRPRPRPRIMPRP | -0.624
RRIRFRPPRLPRPRPRPRIQPRP | 0.018
RRIRFRPPRLPRPRPRPRKGPRP | 0.447
RRIRFRPPRLPRPRPRPRKSPRP | 0.123
RRIRFRPPRLPRPRPRPRKWPRP | 0.498
RRIRFRPPRLPRPRPRPRLDPRP | 0.0416
RRIRFRPPRLPRPRPRPRMFPRP | 0.169
RRIRFRPPRLPRPRPRPRMMPRP | -0.404
RRIRFRPPRLPRPRPRPRNIPRP | -0.313
RRIRFRPPRLPRPRPRPRPIPRP | 0.341
RRIRFRPPRLPRPRPRPRPWPRP | 0.505
RRIRFRPPRLPRPRPRPRQGPRP | 0.259
RRIRFRPPRLPRPRPRPRQMPRP | -0.0877
RRIRFRPPRLPRPRPRPRRLPRP | 0.462
RRIRFRPPRLPRPRPRPRTEPRP | 0.202
RRIRFRPPRLPRPRPRPRTYPRP | -0.794
RRIRFRPPRLPRPRPRPRVQPRP | 0.263
RRIRFRPPRLPRPRPRPRWVPRP | 0.191
RRIRFRPPRLPRPRPRPRYIPRP | -0.392
RRIRFRPPRLPRPRPRPRYPPRP | -0.38
RRIRFRPPRLPRPRPRPRYYPRP | -0.617
